Experiments:
[1] = biological target: human CD16A-Fc^48R/158F fusion protein (human) (UniProt P08637); experiment: SPR, BIAcore 2000, antigen immobilized, koff/kon
[2] = biological target: human CD16A-Fc^48R/158F fusion protein (human) (UniProt P08637); experiment: surface plasmon resonance
[3] = biological target: human CD16A-Fc^48R/158F fusion protein (human) (UniProt P08637); experiment: SPR, BIAcore 2000, antigen immobilized
[4] = biological target: human CD16A-Fc^48R/158V fusion protein (human) (UniProt P08637); experiment: affinity measurement, method not named for the TandAb
[5] = biological target: human CD16A-Fc^48R/158F fusion protein (human) (UniProt P08637); experiment: as above

Sequence of human CD16A-Fc^48R/158F fusion protein (human) (P08637 17-208): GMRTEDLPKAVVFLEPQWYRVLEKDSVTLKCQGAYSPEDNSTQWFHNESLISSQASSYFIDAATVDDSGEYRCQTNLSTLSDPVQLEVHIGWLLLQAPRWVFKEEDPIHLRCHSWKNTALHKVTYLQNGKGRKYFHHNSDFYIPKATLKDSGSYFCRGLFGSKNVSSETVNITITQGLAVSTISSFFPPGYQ
Sequence of human CD16A-Fc^48R/158V fusion protein (human) (P08637 17-208 L66R/F176V limits assumed): as the sequence (P08637 17-208) above, with L50R, F160V counted along it

| Binder | Kd [1] [nM] | Kd [2] [nM] | koff [3] [s⁻¹] | kon [3] [M⁻¹ s⁻¹] | fold improvement in affinity over the 4-LS21 scFv [4] [fold] | fold improvement in affinity over the 4-LS21 scFv [5] [fold] |
| --- | --- | --- | --- | --- | --- | --- |
| affinity matured anti-CD16A scFv 4-LS21 (scFv) scFv: EVQLVQSGAEVKKPGESLKVSCKASGYTFTSYYMHWVRQAPGQGLEWMGIINPSGGSTSYAQKFQGRVTMTRDTSTSTVYMELSSLRSEDTAVYYCARGSAYYYDFADYWGQGTLVTVSSGSASAPTLKLEEGEFSEARVQPVLTQPSSVSVAPGQTATISCGGHNIGSKNVHWYQQRPGQSPVLVIYQDNKRPSGIPERFSGSNSGNTATLTISGTQAMDEADYYCQVWDNYSVLFGGGTKLTVLGQPKAAPSVTLFPPSAAAGSEQKLISEEDLNSHHHHHH | 45.3 | 50 | 0.00323 | 71300 | – | – |
| CD30×CD16^LS21 TandAb/(G2S)3 (bispecific antibody, part only; not given: anti-CD30 VH and VL, His tag, not shown: small tags and cut ends) chain, part: EEVQLVQSGAEVKKPGESLKVSCKASGYTFTSYYMHWVRQAPGQGLEWMGIINPSGGSTSYAQKFQGRVTMTRDTSTSTVYMELSSLRSEDTAVYYCARGSAYYYDFADYWGQGTLVTVSSGGSGGSGGSGGSGGSGGSGGSGGSGGSQPVLTQPSSVSVAPGQTATISCGGHNIGSKNVHWYQQRPGQSPVLVIYQDNKRPSGIPERFSGSNSGNTATLTISGTQAMDEADYYCQVWDNYSVLFGGGTKLTVL | – | – | – | – | > 10 | > 10 |

— US20090214574A1
